For this assay, the system named is Hela cells. Briefly: Flow cytometry binding to Hela cells. Format: cell-based. To be noted: transfection supernatant, FIG. 6. Here is the method:
The binding activity of the antibodies to Hela cells (ATCC® CCL-2, provided by COBIOER) and to RPTEC/TERT1 cells (ATCC® CRL-4031, provided by COBIOER) was tested by flow cytometry using the transfection supernatants. Briefly, target cells were digested with 0.02% EDTA-2Na, centrifuged at 1500 rpm for 3 mins, and resuspended with PBS. After counting, the cells were added to a 1.5 ml centrifuge tube with 1×10^6 cells per tube, centrifuged at 1500 rpm for 5 minutes, and the supernatant was discarded. Then all the operations were carried out on an ice bath. 100 μL of transfection supernatant was added to each 1.5 ml centrifuge tube. Blank cells, blank cells plus secondary antibody, medium and HEK293 supernatant were set up as the controls. The reaction was performed on an ice bath for 1 hour. Then the cells were pelleted and washed twice with PBS. The secondary antibody, goat anti-Human IgG (PE, abcam, ab98596), was diluted (1:200) and added using 100 μL per tube. The reaction was performed on an ice bath for 1 hour in the dark. The cells were pelleted again and washed twice with PBS, resuspended in 300 μL PBS, and FL2 fluorescence readings were measured by cytometry. The results were analyzed by FlowJoTM10 software.
Anti-FOLR1 antibody binding to Hela and RPTEC/TERT1 cells was tested by FACS. The study was carried out as described above. […]
On the technique in general: In flow cytometry, cells or beads pass a laser one at a time.

B1: F40: anti-FOLR1 antibody clone; "Clone F40 has a different HCDRs and LCDRs, and with different HFR and LFR" (antibody, V domains shown)
VH: EVQLLESGGGVVQPGRSLRLSCAASGFTFSSYAMHWVRQAPGKGLEWVAVISYDGSNKYYADSVKGRFIISRDNSKNTVYLQMNSLRAEDTAVYYCARPTYVFTYTGSSFDYWGQGTQVTVSS
VL: DIQVTQSPSSLSASLGDTVSITCRASRGLTDSVAWYQQKPGQAPKLLIYAASTLQSGVPSRFGGSGSGSYFTLTITSLQPEDVATYYCQNYKSAPWTFGQGTKVEIK
Consider B1, for which the Hela cell binding result is given as “weakly positive”.
